Publication PMC3537517, “In vitro substrate phosphorylation by Ca^2+/calmodulin-dependent protein kinase kinase using guanosine-5^′-triphosphate as a phosphate donor” (BMC Biochemistry, 2012)

Assays:
CaMKKα = target: T1, CaMKKα (Rattus norvegicus, UniProt P97756); experiment: […]-GTP kinase assay with GST-CaMKIα ([…]-293, K49E); Lineweaver-Burk; format: biochemical
T1 construct: gene Camkk1; recombinant CaMKKα purified from E. coli; with calmodulin (Ca2+/CaM)

CaMKKβ = target: T2, CaMKKβ (Rattus norvegicus, UniProt O88831); experiment: as above; format: biochemical
T2 construct: gene Camkk2; recombinant CaMKKβ purified from E. coli; with calmodulin (Ca2+/CaM)
T2 sequence (O88831 2-587): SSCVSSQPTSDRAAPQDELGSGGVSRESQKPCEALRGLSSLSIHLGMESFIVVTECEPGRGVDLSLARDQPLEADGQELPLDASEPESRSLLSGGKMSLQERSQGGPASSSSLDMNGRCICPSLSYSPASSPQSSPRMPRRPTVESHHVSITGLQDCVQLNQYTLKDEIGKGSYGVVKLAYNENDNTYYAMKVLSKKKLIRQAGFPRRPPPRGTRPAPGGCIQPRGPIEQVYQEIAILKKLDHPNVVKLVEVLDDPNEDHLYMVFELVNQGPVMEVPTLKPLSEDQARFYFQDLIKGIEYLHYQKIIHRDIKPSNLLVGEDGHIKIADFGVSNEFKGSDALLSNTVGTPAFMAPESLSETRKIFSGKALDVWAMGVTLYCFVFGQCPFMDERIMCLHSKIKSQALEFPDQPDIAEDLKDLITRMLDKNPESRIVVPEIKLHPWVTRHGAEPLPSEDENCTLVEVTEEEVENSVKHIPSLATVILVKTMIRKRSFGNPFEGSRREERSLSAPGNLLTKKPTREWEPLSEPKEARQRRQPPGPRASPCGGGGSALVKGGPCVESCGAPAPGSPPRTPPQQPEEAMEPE

[1] = tested on: Nc1nc2c(ncn2[C@@H]2O[C@H](COP(=O)(O)OP(=O)(O)OP(=O)(O)O)[C@@H](O)[C@H]2O)c(=O)[nH]1; experiment: purified protein; settings: Mg2+, Ca2+ phosphate donor; STO-609 competes with GTP; 30.0 °C
[2] = tested on: Nc1ncnc2c1ncn2[C@@H]1O[C@H](COP(=O)(O)OP(=O)(O)OP(=O)(O)O)[C@@H](O)[C@H]1O; experiment: purified protein; settings: Mg2+, Ca2+ phosphate donor; 30.0 °C

T1 sequence (P97756 whole entry): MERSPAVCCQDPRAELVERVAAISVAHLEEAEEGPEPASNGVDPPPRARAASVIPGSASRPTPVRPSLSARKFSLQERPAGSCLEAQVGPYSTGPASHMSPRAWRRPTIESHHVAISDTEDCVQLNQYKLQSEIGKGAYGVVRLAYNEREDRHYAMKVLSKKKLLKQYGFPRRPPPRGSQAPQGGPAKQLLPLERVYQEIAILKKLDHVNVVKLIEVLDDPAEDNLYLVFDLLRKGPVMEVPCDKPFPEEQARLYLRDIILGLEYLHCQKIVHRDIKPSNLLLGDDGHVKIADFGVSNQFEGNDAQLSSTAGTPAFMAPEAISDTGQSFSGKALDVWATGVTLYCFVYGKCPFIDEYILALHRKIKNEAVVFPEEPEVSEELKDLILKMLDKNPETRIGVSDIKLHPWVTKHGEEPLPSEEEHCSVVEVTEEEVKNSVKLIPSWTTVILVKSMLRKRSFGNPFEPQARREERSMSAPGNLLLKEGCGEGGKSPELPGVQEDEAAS

Compound	IC50 (CaMKKα) [nM]	IC50 (CaMKKβ) [nM]	Km [1] [µM]	Vmax [1] [µmol/min/mg]	Km [2] [µM]	Vmax [2] [µmol/min/mg]
O=C(O)c1ccc2c3c1cccc3c(=O)n1c3ccccc3nc21 [STO-609, 7H-benzimidazo[2,1-a]benz[de]isoquinoline-7-one-3-carboxylic acid]	255	38.2				
CaMKKα (Rattus norvegicus)			444	0.312	15	0.625
CaMKKβ (Rattus norvegicus)			507	0.077	15	0.286
